Results published in patent publication US20150259426A1 (Novartis, published 2015).
Where two headings read alike, the source gives them in different places.

How the values were obtained:
[1] = biological target: T1, cell-bound human DR5 (Colo205 and other human cell lines) (human, UniProt O14763 56-440); experiment: cell-based or functional assay
[2] = biological target: T1, cell-bound human DR5 (Colo205 and other …); experiment: cell-based or functional assay; remark: listed apart in the source
[3] = biological target: T1, cell-bound human DR5 (Colo205 and other …); experiment: cell-based or functional assay; remark: listed apart in the source
[4] = biological target: T1, cell-bound human DR5 (Colo205 and other …); experiment: cell-based or functional assay; remark: listed apart in the source
hGITR = biological target: T2, hGITR (human, UniProt Q9Y5U5); experiment: ELISA, receptor ECD from E. coli lysate on His capture plate;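 note: binding specificity screen across TNF receptor superfamily ectodomains, anti-V5 detection as expression reference, primary antibody incubation 1 h at room temperature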
T2 construct: extracellular domain, E. coli lysate captured on a His capture plate; Target named only on the sheet; the construct is not described in the text
T2 sequence (extracellular domain, looked up): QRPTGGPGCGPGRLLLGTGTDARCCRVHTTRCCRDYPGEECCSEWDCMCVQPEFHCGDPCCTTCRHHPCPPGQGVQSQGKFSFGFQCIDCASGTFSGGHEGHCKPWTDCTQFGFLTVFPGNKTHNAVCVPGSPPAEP

[5] = biological target: T3, TNFR1 extracellular domain (TNFRSF1A, Leu34-Thr211) (UniProt P19438 34-211); experiment: as above
T3 construct: range 34-211; ECD cloned into pBadThioTopo; E. coli lysate on His capture plates
T3 sequence (looked up): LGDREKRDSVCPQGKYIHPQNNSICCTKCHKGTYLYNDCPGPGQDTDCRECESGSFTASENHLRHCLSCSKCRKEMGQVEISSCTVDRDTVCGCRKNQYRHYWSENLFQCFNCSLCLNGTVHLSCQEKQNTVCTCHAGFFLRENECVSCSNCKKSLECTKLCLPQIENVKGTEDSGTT

[6] = biological target: T4, TNFR3 extracellular domain (TNFRSF3, Pro30-Thr224) (UniProt P36941 30-224); experiment: as above
T4 construct: range 30-224; ECD cloned into pBadThioTopo; E. coli lysate on His capture plates

[7] = biological target: T5, OX40 extracellular domain (TNFRSF4, Gly33-Gly212) (UniProt P43489 33-212); experiment: as above
T5 construct: ECD cloned into pBadThioTopo; E. coli lysate on His capture plates
T5 sequence (looked up): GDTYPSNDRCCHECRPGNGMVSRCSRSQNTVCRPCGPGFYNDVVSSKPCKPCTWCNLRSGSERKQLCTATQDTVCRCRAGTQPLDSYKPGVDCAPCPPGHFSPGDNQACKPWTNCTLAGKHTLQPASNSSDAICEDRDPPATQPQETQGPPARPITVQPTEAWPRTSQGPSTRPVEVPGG

[8] = biological target: T6, CD40 extracellular domain (TNFRSF5, Val18-Leu192) (UniProt P25942 18-192); experiment: as above
T6 construct: range 18-192; ECD cloned into pBadThioTopo; E. coli lysate on His capture plates

[9] = biological target: T7, FAS extracellular domain (TNFRSF6, Ser20-Gly175) (UniProt P25445 20-175); experiment: as above
T7 construct: ECD cloned into pBadThioTopo; E. coli lysate on His capture plates
T7 sequence (looked up): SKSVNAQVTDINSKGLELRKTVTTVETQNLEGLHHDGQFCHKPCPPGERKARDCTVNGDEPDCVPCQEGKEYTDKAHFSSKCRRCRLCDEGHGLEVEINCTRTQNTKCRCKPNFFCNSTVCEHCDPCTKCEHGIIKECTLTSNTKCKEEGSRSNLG

[10] = biological target: T8, DcR3 (TNFRSF6B, Val27-Ala176) (UniProt O95407 27-176); experiment: as above
T8 construct: range 27-176; ECD cloned into pBadThioTopo; E. coli lysate on His capture plates
T8 sequence (looked up): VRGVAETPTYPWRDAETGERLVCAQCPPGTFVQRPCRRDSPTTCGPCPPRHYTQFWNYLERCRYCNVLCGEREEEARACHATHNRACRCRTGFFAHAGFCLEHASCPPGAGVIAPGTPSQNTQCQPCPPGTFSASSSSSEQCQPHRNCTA

[11] = biological target: T9, CD27 extracellular domain (TNFRSF7, Thr21-Ser187) (UniProt P26842 21-187); experiment: as above
T9 construct: range 21-187; ECD cloned into pBadThioTopo; E. coli lysate on His capture plates

[12] = biological target: T10, CD137 extracellular domain (TNFRSF9, Glu19-Ile188) (UniProt Q07011 19-188); experiment: as above
T10 construct: range 19-188; ECD cloned into pBadThioTopo; E. coli lysate on His capture plates

[13] = biological target: T11, DcR2 extracellular domain (TNFRSF10D, Thr57-Thr198) (UniProt Q9UBN6 57-198); experiment: as above
T11 construct: range 57-198; ECD cloned into pBadThioTopo; E. coli lysate on His capture plates
T11 sequence (looked up): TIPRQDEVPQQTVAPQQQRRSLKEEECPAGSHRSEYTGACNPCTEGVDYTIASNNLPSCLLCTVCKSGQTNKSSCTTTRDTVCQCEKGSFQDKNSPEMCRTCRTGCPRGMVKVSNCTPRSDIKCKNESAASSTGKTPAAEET

[14] = biological target: T12, OPG (TNFRSF11B, Lys17-Ile197) (UniProt O00300 17-197); experiment: as above
T12 construct: range 17-197; ECD cloned into pBadThioTopo; E. coli lysate on His capture plates
T12 sequence (looked up): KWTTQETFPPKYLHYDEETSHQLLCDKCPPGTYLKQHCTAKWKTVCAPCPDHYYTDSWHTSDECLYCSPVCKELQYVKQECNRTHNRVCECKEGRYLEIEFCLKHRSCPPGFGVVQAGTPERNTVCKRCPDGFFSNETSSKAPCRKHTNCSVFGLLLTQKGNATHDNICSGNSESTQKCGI

[15] = biological target: T13, BAFFR extracellular domain (TNFRSF13C, Met1-Gly64) (UniProt Q96RJ3 1-64); experiment: as above
T13 construct: range 1-64; ECD cloned into pBadThioTopo; E. coli lysate on His capture plates
T13 sequence (Q96RJ3 1-64 limits assumed): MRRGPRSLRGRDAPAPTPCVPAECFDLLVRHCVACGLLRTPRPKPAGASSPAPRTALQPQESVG

T9 sequence (P26842 21-187 limits assumed): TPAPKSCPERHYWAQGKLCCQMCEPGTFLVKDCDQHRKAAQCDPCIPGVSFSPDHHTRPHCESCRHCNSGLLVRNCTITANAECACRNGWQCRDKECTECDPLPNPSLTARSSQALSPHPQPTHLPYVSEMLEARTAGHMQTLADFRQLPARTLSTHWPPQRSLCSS
T6 sequence (P25942 18-192 limits assumed): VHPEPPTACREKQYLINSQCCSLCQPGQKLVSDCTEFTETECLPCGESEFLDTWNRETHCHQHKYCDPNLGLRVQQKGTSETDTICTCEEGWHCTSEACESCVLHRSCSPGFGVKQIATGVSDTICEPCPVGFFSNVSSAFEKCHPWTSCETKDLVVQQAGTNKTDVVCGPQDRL
T10 sequence (Q07011 19-188 limits assumed): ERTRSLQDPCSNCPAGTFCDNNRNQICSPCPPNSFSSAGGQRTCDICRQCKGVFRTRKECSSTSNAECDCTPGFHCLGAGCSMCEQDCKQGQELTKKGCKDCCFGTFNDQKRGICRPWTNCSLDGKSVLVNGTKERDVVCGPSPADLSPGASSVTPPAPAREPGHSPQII
T4 sequence (P36941 30-224 limits assumed): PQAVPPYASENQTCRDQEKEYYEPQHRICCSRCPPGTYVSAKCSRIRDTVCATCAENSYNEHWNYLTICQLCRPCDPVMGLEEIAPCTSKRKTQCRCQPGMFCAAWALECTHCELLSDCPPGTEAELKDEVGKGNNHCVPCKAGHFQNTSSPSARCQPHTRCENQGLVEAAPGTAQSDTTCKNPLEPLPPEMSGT

B1: 4E6-Hu tetra (4E6 hu tetramer) (other)
chain: EVQLLESGGGLVQPGGSLRLSCAASGRTFGSIRVGWFRQAPGKGREFVSAINRNDGTTYYADSVKGRFTISRDNSKNTVYLQMNSLRPEDTAVYYCAAGLQYNRAADRVPVGAVYWGQGTLVTVSSGGGGSGGGGSGGGGSGGGGSGGGGSGGGGSGGGGSEVQLLESGGGLVQPGGSLRLSCAASGRTFGSIRVGWFRQAPGKGREFVSAINRNDGTTYYADSVKGRFTISRDNSKNTVYLQMNSLRPEDTAVYYCAAGLQYNRAADRVPVGAVYWGQGTLVTVSSGGGGSGGGGSGGGGSGGGGSGGGGSGGGGSGGGGSEVQLLESGGGLVQPGGSLRLSCAASGRTFGSIRVGWFRQAPGKGREFVSAINRNDGTTYYADSVKGRFTISRDNSKNTVYLQMNSLRPEDTAVYYCAAGLQYNRAADRVPVGAVYWGQGTLVTVSSGGGGSGGGGSGGGGSGGGGSGGGGSGGGGSGGGGSEVQLLESGGGLVQPGGSLRLSCAASGRTFGSIRVGWFRQAPGKGREFVSAINRNDGTTYYADSVKGRFTISRDNSKNTVYLQMNSLRPEDTAVYYCAAGLQYNRAADRVPVGAVYWGQGTLVTVSS
For B1, the “IC50, cell survival, Colo205” value [1] was 0.012 nM, the “IC50, cell survival, Jurkat” value [1] was 0.0026 nM and the “IC50, cell survival, A549” value [2] was over 10 nM. The “IC50, cell survival, BxPC-3” value [2] was 0.0292 nM, the “IC50, cell survival, Colo205” value [2] was 0.0034 nM and the “IC50, cell survival, H226” value [2] was 0.129 nM. For the same binder, the “IC50, cell survival, H2122” value [2] was 0.0051 nM, the “IC50, cell survival, Jurkat (72)” value [2] was 0.0172 nM and the “IC50, cell survival, M30” value [2] was over 10 nM. The “IC50, cell survival, MiaPaCa-2” value [2] was 0.0185 nM, the “IC50, cell survival, Panc-1” value [2] was 0.229 nM and the “IC50, cell survival, T24” value [2] was 0.0447 nM.

B2: 7A12 tetra (tetravalent anti-DR5 NB construct) (other)
chain: EVQLVESGGGLVQAGGSLRLSCAASGRTFSNYAMGWFRQAPGKEREFVAALNWSGGSTYYVDSVKGRFTISRDNAKNTVYLQMNSLKPEDTAVYYCAAAGSFSLGGRPYGDDYWGKGTLVTVSSGGGGSGGGGSGGGGSGGGGSGGGGSGGGGSGGGGSEVQLVESGGGLVQAGGSLRLSCAASGRTFSNYAMGWFRQAPGKEREFVAALNWSGGSTYYVDSVKGRFTISRDNAKNTVYLQMNSLKPEDTAVYYCAAAGSFSLGGRPYGDDYWGKGTLVTVSSGGGGSGGGGSGGGGSGGGGSGGGGSGGGGSGGGGSEVQLVESGGGLVQAGGSLRLSCAASGRTFSNYAMGWFRQAPGKEREFVAALNWSGGSTYYVDSVKGRFTISRDNAKNTVYLQMNSLKPEDTAVYYCAAAGSFSLGGRPYGDDYWGKGTLVTVSSGGGGSGGGGSGGGGSGGGGSGGGGSGGGGSGGGGSEVQLVESGGGLVQAGGSLRLSCAASGRTFSNYAMGWFRQAPGKEREFVAALNWSGGSTYYVDSVKGRFTISRDNAKNTVYLQMNSLKPEDTAVYYCAAAGSFSLGGRPYGDDYWGKGTLVTVSS
notes: four VHH units in one chain joined by GlySer linkers; not shown: C-terminal c-myc/His6 tag from vector pAX51
With B2 the “IC50, cell survival, 184A1” value [3] was at least 20 nM, the “IC50, cell survival, A549” value [3] was at least 20 nM and the “IC50, cell survival, ARPE-19” value [3] was at least 20 nM. The “IC50, cell survival, BxPC-3” value [3] was 0.023 nM, the “IC50, cell survival, Colo205” value [3] was 0.0066 nM and the “IC50, cell survival, H226” value [3] was at least 20 nM. The “IC50, cell survival, H2052” value [3] was 0.033 nM, the “IC50, cell survival, H2122” value [3] was 0.0036 nM and the “IC50, cell survival, HAAE-1” value [3] was at least 20 nM. The “IC50, cell survival, Huvec” value [3] was at least 20 nM, the “IC50, cell survival, Jurkat” value [3] was 0.037 nM and the “IC50, cell survival, M30” value [3] was at least 20 nM. The “IC50, cell survival, Malme-3” value [3] was at least 20 nM, the “IC50, cell survival, MiaPaCa-2” value [3] was 0.041 nM and the “IC50, cell survival, Molt4” value [3] was at least 20 nM. For the same binder, the “IC50, cell survival, Panc-1” value [3] was at least 20 nM, the “IC50, cell survival, WI-38” value [3] was at least 20 nM and the “EC50, caspase 3/7 in Colo205 tumor after a single dose in mice, indirect response model” value [4] was 1.41 ng/mg tissue. B2: no binding (tested: not stated) (hGITR); no binding (tested: not stated) [5]; no binding (tested: not stated) [6]. B2: no binding (tested: not stated) [7]; no binding (tested: not stated) [8]; no binding (tested: not stated) [9]. B2: no binding (tested: not stated) [10]; no binding (tested: not stated) [11]; no binding (tested: not stated) [12]. B2: no binding (tested: not stated) [13]; no binding (tested: not stated) [14]; no binding (tested: not stated) [15].
